Molecular target: recombinant Myodes glareolus IFN-γ (recMgIFN-γ) (Myodes glareolus (bank vole))
Test: SEC; analytical gel filtration of 200 µl purified recMgIFN-γ in PBS at room temperature on a calibrated Superdex 75 10/300 GL column, flow rate 0.75 ml/min; detection at 230 and 260 nm

recombinant Myodes glareolus IFN-γ (recMgIFN-γ) (natural protein)
stoichiometry N: 2
